Measurements from US20240401071A1.

Molecular target: Rubisco activase (Arabidopsis thaliana) (UniProt P10896)
Assay: GFP-bead immunoprecipitation of PRL-1-eGFP from Arabidopsis leaves, mass spectrometry (IPMS); interaction direct or indirect

Chain of UniProt P10896 (P10896 59-474 limits assumed): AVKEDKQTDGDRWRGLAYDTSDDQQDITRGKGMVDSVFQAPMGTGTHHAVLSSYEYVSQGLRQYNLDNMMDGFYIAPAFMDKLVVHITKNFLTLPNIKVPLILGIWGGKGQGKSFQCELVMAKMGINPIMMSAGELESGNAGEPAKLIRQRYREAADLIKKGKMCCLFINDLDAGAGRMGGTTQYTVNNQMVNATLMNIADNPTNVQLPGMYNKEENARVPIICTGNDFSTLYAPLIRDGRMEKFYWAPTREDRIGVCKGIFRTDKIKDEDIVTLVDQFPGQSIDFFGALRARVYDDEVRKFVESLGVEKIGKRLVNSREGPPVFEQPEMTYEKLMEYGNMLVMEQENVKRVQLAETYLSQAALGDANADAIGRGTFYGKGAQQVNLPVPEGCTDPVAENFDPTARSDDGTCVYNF

fold abundance in the dark versus light (co-precipitated protein): 4 fold
Substance: PRL-1-eGFP (C-terminal GFP fusion with PRL-1, ribulose bisphosphate carboxylase/oxygenase large subunit-related, Potri.012G062600)
